To fix the notation:
B1: I-2271 (peptide)
peptide: Ac-[αAllylPro]D[tBuAla][B5(3)]D[Phe(3-COOH)]AAFL[PyrS2(4)][3Thi][Bta]NA[Aib]A-NH2
modifications: staple 1-4, 4-11; reading uncertain; also: printed as Ac-PL3-Asp-Npg-B5-Asp-3COOHF-Ala-Ala-Phe-Leu-PyrS2-3Thi-BztA-Asn-Ala-Aib-Ala-NH2
B2: I-2268 (peptide)
peptide: Ac-[αAllylPro]D[tBuAla][B5(3)]D[Phe(3-COOH)]AAFL[PyrS2(4)][3Thi][Bta]NAAAAA-NH2
modifications: staple 1-4, 4-11; reading uncertain; also: printed as Ac-PL3-Asp-Npg-B5-Asp-3COOHF-Ala-Ala-Phe-Leu-PyrS2-3Thi-BztA-Asn-Ala-Ala-Ala-Ala-Ala-NH2

Starred links: 1 amine or outer side, 2 acyl side, 3 side chain; linkers in the order of their positions; H or OH if unused. Positions of bridges follow the written chain, without caps; N, C: chain ends. Non-standard residues stand in square brackets, D forms with d. Primed or numbered codes have the meaning given here. PyrS2″ = (S)-3-amino-1-((pent-4-en-1-yloxy)carbonyl)pyrrolidine-3-carboxylic acid (stapling residue), C=CCCCOC(=O)N1CC[C@@](N[*:1])(C(=O)[*:2])C1; B5(32) = 2-amino-2-(pent-4-en-1-yl)hept-6-enoic acid (bis-4-pentenylglycine, two alkene side chains), C=CCCCC(CCCC=C)(N[*:1])C(=O)[*:2]; B5(5) = 2,2-bis(4-pentenyl)glycine, 2-amino-2-(pent-4-en-1-yl)hept-6-enoic acid (stitching residue), C=CCCCC(CCCC=C)(N[*:1])C(=O)[*:2]; PyrS2 = (S)-3-amino-1-((pent-4-en-1-yloxy)carbonyl)pyrrolidine-3-carboxylic acid, C=CCCCOC(=O)N1CC[C@@](N[*:1])(C(=O)[*:2])C1; B5(27) = 2-amino-2-(pent-4-en-1-yl)hept-6-enoic acid (two alkene side-chain arms), C=CCCCC(CCCC=C)(N[*:1])C(=O)[*:2]; B5(3) = 2,2-bis(4-pentenyl)glycine (stitching residue), C=CCCCC(CCCC=C)(N[*:1])C(=O)[*:2]; Phe(3-COOH) = N[C@@H](Cc1cccc(C(=O)O)c1)C(=O)O; Bta = N[C@@H](Cc1csc2ccccc12)C(=O)O; αAllylPro = C=CC[C@@]1(C(=O)O)CCCN1; tBuAla = CC(C)(C)C[C@H](N)C(=O)O; 3Thi = N[C@@H](Cc1ccsc1)C(=O)O; S8 = C=CCCCCCC[C@](C)(N)C(=O)O; PyrS2(4) = not defined here; hSer = N[C@@H](CCO)C(=O)O; Nle = CCCC[C@H](N)C(=O)O; Aib = CC(C)(N)C(=O)O

The first experiment has as its target T1, B-cat-Halo (UniProt P35222 1-781).
T1 sequence (looked up): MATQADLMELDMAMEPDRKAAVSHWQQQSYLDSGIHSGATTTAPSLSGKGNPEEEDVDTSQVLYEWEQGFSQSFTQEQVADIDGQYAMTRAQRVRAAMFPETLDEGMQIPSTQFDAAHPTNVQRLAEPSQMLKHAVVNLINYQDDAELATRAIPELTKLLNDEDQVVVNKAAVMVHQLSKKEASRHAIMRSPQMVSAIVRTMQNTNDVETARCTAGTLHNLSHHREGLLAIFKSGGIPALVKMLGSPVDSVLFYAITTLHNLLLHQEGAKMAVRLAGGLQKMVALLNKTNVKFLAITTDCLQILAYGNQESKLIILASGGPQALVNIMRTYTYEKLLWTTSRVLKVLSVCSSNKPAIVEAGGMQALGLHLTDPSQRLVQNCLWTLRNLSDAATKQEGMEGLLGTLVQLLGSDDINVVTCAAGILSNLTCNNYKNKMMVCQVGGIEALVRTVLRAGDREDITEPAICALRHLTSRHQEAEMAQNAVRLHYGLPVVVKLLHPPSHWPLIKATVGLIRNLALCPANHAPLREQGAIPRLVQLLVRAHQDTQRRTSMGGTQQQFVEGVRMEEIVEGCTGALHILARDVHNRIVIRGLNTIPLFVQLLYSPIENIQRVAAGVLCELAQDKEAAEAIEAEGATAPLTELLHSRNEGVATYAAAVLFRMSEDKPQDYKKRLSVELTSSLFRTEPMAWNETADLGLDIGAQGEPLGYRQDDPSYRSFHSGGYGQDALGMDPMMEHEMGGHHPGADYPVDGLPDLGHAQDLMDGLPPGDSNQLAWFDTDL
Put plainly: cell-based or functional assay.
Regarding B1, the “NanoBRET Abs IC50” value is 2.3 µM.
The same measure, in the same setting: then Ac-[αAllylPro]D[tBuAla][B5(32)]D[Phe(3-COOH)]AAFL[PyrS2][3Thi][Bta]NLLL-NH2 (staple 1-4, 4-11; also: earlier eluting staple isomer (HPLC peak)) [I-2275], with 3.5 µM; and Ac-[αAllylPro]D[tBuAla][B5(3)]D[Phe(3-COOH)]AAFL[PyrS2″][3Thi][Bta]NA[Aib]A[Aib]A[Aib]A-NH2 (staple 1-4, 4-11) [I-2273], with 6.2 µM; and B2, with 3.1 µM.
Still for that read-out and setting: for Ac-[αAllylPro]D[tBuAla][B5(3)]D[Phe(3-COOH)]AAFL[PyrS2″][3Thi][Bta]NA[Aib]A[Aib]A-NH2 (staple 1-4, 4-11) [I-2272] the value was 3 µM.
The same measure, in the same setting: for Ac-[αAllylPro]D[tBuAla][B5(3)]D[Phe(3-COOH)]AAFL[PyrS2″][3Thi][Bta]NL-NH2 (staple 1-4, 4-11) [I-2274] the value was 2 µM.
In the case of Ac-[αAllylPro]D[tBuAla][B5(3)]D[Phe(3-COOH)]AAFL[PyrS2″][3Thi][Bta]NAAAAAAA-NH2 (staple 1-4, 4-11) [I-2269], the “NanoBRET Abs IC50” value amounted to 2.3 µM.

In the next experiment the target is T2, B-cat-Halo (beta-catenin HaloTag NanoBRET construct expressed in HEK293 cells) (UniProt P35222 1-781, HaloTag NanoBRET 618 Ligand bound to the HaloTag).
T2 sequence (looked up): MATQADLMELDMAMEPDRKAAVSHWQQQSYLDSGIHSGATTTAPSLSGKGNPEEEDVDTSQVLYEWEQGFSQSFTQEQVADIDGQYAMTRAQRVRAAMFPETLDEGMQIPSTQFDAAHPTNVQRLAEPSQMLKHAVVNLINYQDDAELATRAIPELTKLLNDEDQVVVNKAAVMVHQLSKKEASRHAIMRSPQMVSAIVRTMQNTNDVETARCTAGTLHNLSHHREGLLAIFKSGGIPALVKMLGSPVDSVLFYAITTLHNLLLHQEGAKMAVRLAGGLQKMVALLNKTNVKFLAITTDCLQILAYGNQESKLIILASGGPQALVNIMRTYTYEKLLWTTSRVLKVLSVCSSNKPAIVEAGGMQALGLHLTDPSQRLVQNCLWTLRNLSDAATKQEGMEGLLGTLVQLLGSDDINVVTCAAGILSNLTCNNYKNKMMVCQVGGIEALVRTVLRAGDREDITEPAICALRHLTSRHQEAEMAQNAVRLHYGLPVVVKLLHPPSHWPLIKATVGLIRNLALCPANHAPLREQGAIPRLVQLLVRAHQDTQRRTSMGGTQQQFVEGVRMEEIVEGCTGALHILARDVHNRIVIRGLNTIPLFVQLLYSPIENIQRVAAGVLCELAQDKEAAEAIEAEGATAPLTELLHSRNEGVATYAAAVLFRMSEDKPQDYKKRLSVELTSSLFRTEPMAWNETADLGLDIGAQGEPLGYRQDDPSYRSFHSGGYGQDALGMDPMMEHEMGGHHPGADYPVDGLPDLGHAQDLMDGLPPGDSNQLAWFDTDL
The experiment is described as follows: cell-based or functional assay.
Regarding Ac-[αAllylPro]DY[B5(27)]DDAAFL[PyrS2][3Thi][Bta]Q-NH2 (staple 1-4, 4-11) [I-1511: Ac-PL3-Asp-Tyr-B5-Asp-Asp-Ala-Ala-Phe-Leu-PyrS2-3Thi-BztA-Gln-NH2], the “NanoBRET Abs IC50” value is > 20 µM.
In the case of Ac-[αAllylPro]D[Nle][B5(5)]DEAAFL[S8]F[Bta]Q-NH2 (staple 1-4, 4-11) [I-1523: Ac-PL3-Asp-nLeu-B5-Asp-Glu-Ala-Ala-Phe-Leu-S8-Phe-BztA-Gln-NH2], the “NanoBRET Abs IC50” value came to 8 µM.
The same measure, in the same setting: then Ac-[αAllylPro]D[Nle][B5(5)]DEAAFQ[S8]F[Bta]Q-NH2 (staple 1-4, 4-11; also: staple isomer, earlier eluting HPLC peak) [I-1521: Ac-PL3-Asp-nLeu-B5-Asp-Glu-Ala-Ala-Phe-Gln-S8-Phe-BztA-Gln-NH2], with 6 µM; and Ac-[αAllylPro]D[Nle][B5(5)]DEAAFQ[S8]F[Bta]Q-NH2 (staple 1-4, 4-11) [I-1522: Ac-PL3-Asp-nLeu-B5-Asp-Glu-Ala-Ala-Phe-Gln-S8-Phe-BztA-Gln-NH2], with 5.8 µM; and Ac-[αAllylPro]DS[B5(5)]DDAAFL[PyrS2″][3Thi][Bta]Q-NH2 (staple 1-4, 4-11) [I-1513: Ac-PL3-Asp-Ser-B5-Asp-Asp-Ala-Ala-Phe-Leu-PyrS2-3Thi-BztA-Gln-NH2], with > 20 µM.
On the same count and under the same terms, then Ac-[αAllylPro]D[Nle][B5(5)]DEAAF[hSer][S8]F[Bta]Q-NH2 (staple 1-4, 4-11; also: staple isomer, earlier eluting HPLC peak) [I-1524: Ac-PL3-Asp-nLeu-B5-Asp-Glu-Ala-Ala-Phe-Hse-S8-Phe-BztA-Gln-NH2], with 8.1 µM; and Ac-[αAllylPro]D[Nle][B5(5)]DEAAF[hSer][S8]F[Bta]Q-NH2 (staple 1-4, 4-11) [I-1525: Ac-PL3-Asp-nLeu-B5-Asp-Glu-Ala-Ala-Phe-Hse-S8-Phe-BztA-Gln-NH2], with 10.8 µM.

(Values after patent publication US20240116985A1 (published 2024).)
